One block for each binder: values may come before it.
How the values were obtained:
Settings in all cases: both partners purified
[1] = target: T1, native sulfated human anionic trypsin purified from pancreatic juice (human, UniProt P07478 24-247, sulfated on Tyr154); assay: equilibrium binding assay; equilibrium dissociation constant of ecotin on human trypsins, 15 h of incubation; further conditions not told for ecotin
T1 construct: human anionic trypsin, the active enzyme cut from anionic trypsinogen by enteropeptidase; also called Hu2-SO4 (native); Hu2-SO4
T1 sequence (P07478 24-247): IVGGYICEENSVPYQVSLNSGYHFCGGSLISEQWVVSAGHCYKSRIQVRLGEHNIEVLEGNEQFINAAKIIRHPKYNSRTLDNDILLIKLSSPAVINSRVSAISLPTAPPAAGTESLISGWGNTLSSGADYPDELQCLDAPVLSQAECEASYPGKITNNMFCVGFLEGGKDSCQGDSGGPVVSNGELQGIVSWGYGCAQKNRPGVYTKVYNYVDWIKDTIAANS

[2] = target: T2, nonsulfated human anionic trypsin purified from E. coli (human, UniProt P07478 24-247); assay: as above
T2 construct: human anionic trypsin, the active enzyme cut from anionic trypsinogen (Hu2) by enteropeptidase; Not sulfated on Tyr154; also called Hu2 (E. coli); Hu2
T2 sequence (P07478 24-247): as above

[3] = target: T3, sulfated human anionic trypsin purified from the conditioned medium of transfected HEK 293T cells (human, UniProt P07478 24-247, sulfated on Tyr154); assay: equilibrium binding assay (free trypsin activity on a fluorogenic substrate); fixed trypsin incubated with increasing SPINK1, 0.2 ml, 0.1 M Tris-HCl (pH 8.0), 150 mM NaCl, 1 mM CaCl2, 0.05% Tween 20, 15 h; free trypsin measured with Z-Gly-Pro-Arg-AMC; apparent KD, global fit of at least three experiments
T3 construct: human anionic trypsin, the active enzyme cut from anionic trypsinogen (Hu2) by enteropeptidase; also called Hu2-SO4 (HEK 293T); source: HEK 293T, cotransfected with tyrosylprotein sulfotransferase 2
T3 sequence (P07478 24-247): as above

[4] = target: T4, nonsulfated human anionic trypsin purified from the conditioned medium of transfected HEK 293T cells (human, UniProt P07478 24-247); assay: as above
T4 construct: human anionic trypsin, the active enzyme cut from anionic trypsinogen (Hu2) by enteropeptidase; Sulfation prevented by sodium chlorate; also called Hu2 (HEK 293T); source: HEK 293T, transfected, grown with 50 mM sodium chlorate
T4 sequence (P07478 24-247): as above

[5] = target: T1, native sulfated human anionic trypsin …; assay: KD calculated from the rate constants (association and dissociation rate assays); KD(calc): equilibrium dissociation constant calculated from kon and koff of the activity-based rate assays
[6] = target: T2, nonsulfated human anionic trypsin …; assay: as above
[7] = target: T1, native sulfated human anionic trypsin …; assay: equilibrium binding assay (free trypsin activity on a fluorogenic substrate); fixed trypsin incubated with increasing SPINK1, 0.2 ml, 0.1 M Tris-HCl (pH 8.0), 150 mM NaCl, 1 mM CaCl2, 0.05% Tween 20, 15 h; free trypsin measured with Z-Gly-Pro-Arg-AMC; apparent KD, global fit of at least three experiments
[8] = target: T2, nonsulfated human anionic trypsin …; assay: as above
[9] = target: T1, native sulfated human anionic trypsin …; assay: discontinuous association rate assay (residual trypsin activity); 50 pM trypsin mixed with 500 pM SPINK1, 0.1 M Tris-HCl (pH 8.0), 150 mM NaCl, 1 mM CaCl2, 0.05% Tween 20, 23 °C; kon from the pseudo-first-order rate constant divided by the inhibitor concentration
[10] = target: T2, nonsulfated human anionic trypsin …; assay: as above
[11] = target: T1, native sulfated human anionic trypsin …; assay: dissociation rate assay (recovery of trypsin activity after dilution of the complex); complex of 11 nM SPINK1 and 10 nM trypsin formed for 1 h at 23 °C, diluted to 50-200 pM with 0.6 mM Z-Gly-Pro-Arg-AMC, 0.1 M Tris-HCl (pH 8.0), 150 mM NaCl, 1 mM CaCl2, 0.05% Tween 20, room temperature, followed for 1 h
[12] = target: T2, nonsulfated human anionic trypsin …; assay: as above
[13] = target: T1, native sulfated human anionic trypsin …; assay: equilibrium binding assay (free trypsin activity on a fluorogenic substrate); fixed trypsin incubated with increasing SPINK1, 0.2 ml, 0.1 M Tris-HCl (pH 8.0), 150 mM NaCl, 1 mM CaCl2, 0.05% Tween 20, 15 h; free trypsin measured with Z-Gly-Pro-Arg-AMC; apparent KD, global fit of at least three experiments; remark: listed apart in the source
[14] = target: T1, native sulfated human anionic trypsin …; assay: equilibrium binding assay (free trypsin activity on a fluorogenic substrate); as the equilibrium assay but K41N SPINK1 incubated with trypsin for 1 h; 0.1 M Tris-HCl (pH 8.0), 150 mM NaCl, 1 mM CaCl2, 0.05% Tween 20; apparent KD

- Kd [1]: 0.0195 nM
- Kd [2]: 0.0032 nM
B1: ecotin (natural protein)
chain: not shown
notes: source: E. coli BL21(DE3), overexpressed, purified from the periplasm

- Kd [13]: 0.006 nM
B3: SPINK1 variant R65Q, C-terminal 10His tag (natural protein, human, UniProt P00995 24-79, looked up)
chain: DSLGREAKCYNELNGCTKIYDPVCGTDGNTYPNECVLCFENQKRQTSILIQKSGPC
notes: also called SPINK1 R65Q; p.R65Q; source: HEK 293T, transfected, purified from conditioned medium (nickel-nitrilotriacetic acid cartridge); not shown: 10His, C-terminal, kept

- Kd [13]: 0.027 nM
B5: SPINK1 variant Q68R, C-terminal 10His tag (natural protein, human, UniProt P00995 24-79, looked up)
chain: DSLGREAKCYNELNGCTKIYDPVCGTDGNTYPNECVLCFENRKRRTSILIQKSGPC
notes: also called SPINK1 Q68R; p.Q68R; source: HEK 293T, transfected, purified from conditioned medium (nickel-nitrilotriacetic acid cartridge); not shown: 10His, C-terminal, kept

The next lines start with the binder.

B2: serine protease inhibitor Kazal type 1 (SPINK1), wildtype, C-terminal 10His tag (natural protein, human, UniProt P00995 24-79, looked up)
chain: DSLGREAKCYNELNGCTKIYDPVCGTDGNTYPNECVLCFENRKRQTSILIQKSGPC
notes: expressed from the SPINK1-minigene-1 construct with its own signal peptide; Residue numbers start at the initiator methionine; source: HEK 293T, transfected, purified from conditioned medium (nickel-nitrilotriacetic acid cartridge); not shown: 10His, C-terminal, kept
- Kd [3]: 0.009 nM
- Kd [4]: 0.0005 nM
- Kd [5]: 0.0075 nM
- Kd [6]: 0.0001 nM
- Kd [7]: 0.0367 nM
- Kd [8]: 0.0003 nM
- kon [9]: 2.4e+06 M⁻¹ s⁻¹
- kon [10]: 3.8e+06 M⁻¹ s⁻¹
- koff [11]: 1.81e-05 s⁻¹
- koff [12]: 5e-07 s⁻¹

B4: SPINK1 variant K41N, C-terminal 10His tag (natural protein, human, UniProt P00995 24-79, looked up)
chain: DSLGREAKCYNELNGCTNIYDPVCGTDGNTYPNECVLCFENRKRQTSILIQKSGPC
notes: Its concentration was determined by SDS-PAGE and densitometry, not by active site titration; also called SPINK1 K41N; p.K41N; source: HEK 293T, transfected, purified from conditioned medium (nickel-nitrilotriacetic acid cartridge); not shown: 10His, C-terminal, kept
- Kd [14]: 1150 nM

B6: SPINK1 variant N34S, C-terminal 10His tag (natural protein, human, UniProt P00995 24-79, looked up)
chain: DSLGREAKCYSELNGCTKIYDPVCGTDGNTYPNECVLCFENRKRQTSILIQKSGPC
notes: also called SPINK1 N34S; p.N34S; source: HEK 293T, transfected, purified from conditioned medium (nickel-nitrilotriacetic acid cartridge); not shown: 10His, C-terminal, kept
- Kd [3]: 0.0063 nM
- Kd [4]: 0.0008 nM
- Kd [5]: 0.0044 nM
- Kd [6]: 0.0001 nM
- Kd [7]: 0.0167 nM
- Kd [8]: 0.0004 nM
- kon [9]: 3.1e+06 M⁻¹ s⁻¹
- kon [10]: 5.1e+06 M⁻¹ s⁻¹
- koff [11]: 1.36e-05 s⁻¹
- koff [12]: 4e-07 s⁻¹

B7: SPINK1 variant I42M, C-terminal 10His tag (natural protein, human, UniProt P00995 24-79, looked up)
chain: DSLGREAKCYNELNGCTKMYDPVCGTDGNTYPNECVLCFENRKRQTSILIQKSGPC
notes: also called SPINK1 I42M; p.I42M; source: HEK 293T, transfected, purified from conditioned medium (nickel-nitrilotriacetic acid cartridge); not shown: 10His, C-terminal, kept
- Kd [13]: 0.258 nM

B8: SPINK1 variant P55S, C-terminal 10His tag (natural protein, human, UniProt P00995 24-79, looked up)
chain: DSLGREAKCYNELNGCTKIYDPVCGTDGNTYSNECVLCFENRKRQTSILIQKSGPC
notes: also called SPINK1 P55S; p.P55S; source: HEK 293T, transfected, purified from conditioned medium (nickel-nitrilotriacetic acid cartridge); not shown: 10His, C-terminal, kept
- Kd [13]: 0.123 nM

B9: SPINK1 variant N37S, C-terminal 10His tag (natural protein, human, UniProt P00995 24-79, looked up)
chain: DSLGREAKCYNELSGCTKIYDPVCGTDGNTYPNECVLCFENRKRQTSILIQKSGPC
notes: also called SPINK1 N37S; p.N37S; source: HEK 293T, transfected, purified from conditioned medium (nickel-nitrilotriacetic acid cartridge); not shown: 10His, C-terminal, kept
- Kd [13]: 0.0214 nM

Source: publication PMC7949130, “Defective binding of SPINK1 variants is an uncommon mechanism for impaired trypsin inhibition in chronic pancreatitis” (The Journal of Biological Chemistry, 2021)
